Laboratory results from patent US20100159560.

Columns and labels:
[1] = target: T1, protransglutaminase of Streptoverticillium mobaraense IFO13819 (pro-MTG), P81453
T1 chain: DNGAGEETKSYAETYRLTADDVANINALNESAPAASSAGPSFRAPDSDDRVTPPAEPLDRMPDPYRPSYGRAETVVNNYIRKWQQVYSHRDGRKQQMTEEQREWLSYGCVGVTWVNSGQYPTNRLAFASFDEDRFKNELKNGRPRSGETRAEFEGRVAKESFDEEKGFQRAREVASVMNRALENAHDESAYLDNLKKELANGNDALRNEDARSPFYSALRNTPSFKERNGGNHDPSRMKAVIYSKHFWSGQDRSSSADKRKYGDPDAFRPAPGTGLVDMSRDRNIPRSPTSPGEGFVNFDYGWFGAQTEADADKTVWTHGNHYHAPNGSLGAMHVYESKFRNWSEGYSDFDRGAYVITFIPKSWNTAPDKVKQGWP

[2] = target: T2, Streptomyces subtilisin inhibitor (SSI) derived from actinomycetes, P01006
T2 chain: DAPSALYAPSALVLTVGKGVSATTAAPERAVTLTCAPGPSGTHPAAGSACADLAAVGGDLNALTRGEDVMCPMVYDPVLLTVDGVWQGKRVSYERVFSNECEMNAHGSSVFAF

[3] = target: T3, synthetic peptide Gly-Pro-Ser-Phe-Arg-Ala-Pro-Asp-Ser
T3 chain: GPSFRAPDS

B1: neutral metalloprotease SVP35 from Streptoverticillium mobaraense IFO13819 (protein)
chain: GTGTSTYSGTVPLTTTKSGSQYQLNDGARGGHKTYDLNQGTSGTGSLFTNSTDTWGGGRQTAGVDAHYGAAVTWDFYKNVFGRNGIRNDGKAAYSRVHYGNSYVNAFWSDSCFCMTYGDGQNNKNPLTALDVAAHEMSHGVTAATAKLVYSGESGGLNEATSDIFGTAVEFYANNKTDVGDYLIGEKINIYGDGKPLRYMDKPSKDGKSKDSWYSGIGGVDVHYSSGPANHFFYLLSEGSGKKTINGVDYDSPTADGSKVTGIGRDKAQKIWYKALTTQFTSNTNYAKARTGTLNAAASLYGNNSAEYKAVAAAWSAINVK
[1]
  cleavage points (HPLC separation and sequencing of peptide fragments): cleaved before (at the N-terminal of) especially Phe, often Leu, sometimes Tyr, Trp, Ile, Val
  conversion of pro-MTG to mature MTG (SDS-PAGE time course; TG activity by the hydroxamate method), substrate:enzyme = 200:1: pro-MTGs were converted to the mature forms, and the produced MTGs were not reduced even after a long-term reaction
Insulin B
  cleavage points (HPLC separation and sequencing of peptide fragments): cleaved before (at the N-terminal of) especially Phe, often Leu, sometimes Tyr, Trp, Ile, Val
[2]
  relative activity (Gly-Pro-Ser-Phe-Arg-Ala-Pro-Asp-Ser cleavage activity, absence of compounds = 100%): strongly inhibited
[3]
  cleavage activity on the peptide substrate (HPLC, decrease of substrate): SVP35 was allowed to act on Gly-Pro-Ser-Phe-Arg-Ala-Pro-Asp-Ser (SEQ ID NO: 11) as a substrate
